# Results reported in IntAct's records for PubMed 18052611.
# B1: Protein matrimony (Drosophila melanogaster (Fruit fly)), Q23973 (parent)
# chain: MENSRTPTNKTKITLNRTPTLKERRWNTLKVNTSNVRCSTPIFGNFRSPNLSPIENMGTKGKSPVSPMRFATFKKVPTKVHPKQQQQQQHQHCHRTQLKPPPFVLPKPQEEIIEPEREIKSCSSPDTCSDDSNMETSLALESRRRSIKASNHSYVVNHAANVEQILMHMGLENYVTNFEEAHIDLVELASLERADLVKIGLNTDEDCNRIMDVLHTL
# partner: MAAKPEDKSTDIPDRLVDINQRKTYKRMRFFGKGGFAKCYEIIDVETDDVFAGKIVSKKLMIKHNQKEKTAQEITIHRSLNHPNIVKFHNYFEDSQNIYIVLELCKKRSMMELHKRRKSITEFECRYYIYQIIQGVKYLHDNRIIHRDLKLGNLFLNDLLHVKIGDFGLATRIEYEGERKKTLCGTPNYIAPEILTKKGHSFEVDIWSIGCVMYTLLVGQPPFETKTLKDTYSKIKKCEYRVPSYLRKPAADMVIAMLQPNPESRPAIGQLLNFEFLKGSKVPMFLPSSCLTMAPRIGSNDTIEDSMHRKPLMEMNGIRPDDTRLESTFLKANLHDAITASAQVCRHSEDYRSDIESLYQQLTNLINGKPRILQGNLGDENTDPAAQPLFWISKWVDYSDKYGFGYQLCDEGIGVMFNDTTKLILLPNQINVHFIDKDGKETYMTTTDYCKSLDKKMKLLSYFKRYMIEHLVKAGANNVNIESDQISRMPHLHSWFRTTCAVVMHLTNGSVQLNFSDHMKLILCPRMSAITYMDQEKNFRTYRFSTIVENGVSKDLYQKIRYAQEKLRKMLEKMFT
# Variants of: B1
# Settings: with polo_drome polo
row,Variant,effect of a mutation on the interaction
1,MENSRTPTNKTKITLNRTPTLKERRWNTLKVNTSNVRCSAPIFGNFRSPNLSPIENMGTKGKSPVSPMRFATFKKVPTKVHPKQQQQQQHQHCHRTQLKPPPFVLPKPQEEIIEPEREIKSCSSPDTCSDDSNMETSLALESRRRSIKASNHSYVVNHAANVEQILMHMGLENYVTNFEEAHIDLVELASLERADLVKIGLNTDEDCNRIMDVLHTL [T40A],disrupting interaction
